Data from paper doi:10.1101/2025.06.13.659598.

Key:
[1] = biological target: nesprin-2G SR11-13 (spectrin repeats 11-13 of human nesprin-2) (human); assay: BLI
[2] = biological target: nesprin-2G SR11-12 (spectrin repeats 11-12 of human nesprin-2) (human); assay: BLI

B1: FHOD1 SRBD-DID (amino terminal construct of human FHOD1) (domain or fragment)
chain: SVVTVRVQYLEDTDPFACANFPEPRRAPTCSLDGALPLGAQIPAVHRLLGAPLKLEDCALQVSPSGYYLDTELSLEEQREMLEGFYEEISKGRKPTLILRTQLSVRVNAILEKLYSSSGPELRRSLFSLKQIFQEDKDLVPEFVHSEGLSCLIRVGAAADHNYQSYILRALGQLMLFVDGMLGVVAHSDTIQWLYTLCASLSRLVVKTALKLLLVFVEYSENNAPLFIRAVNSVASTTGAPPWANLVSILEEKNGADPELLVYTVTLINKTLAALPDQDSFYDVTDALEQQGMEALVQRHLGTAGTDVDLRTQLVLYENAL
Kd [1]: 92 nM | Kd [2]: 472 nM
